# Measured values published in patent publication US20150368357A1.
# Legend:
# [1] = target: HER2 (Human Epidermal Growth Factor Receptor 2) expressed on SK-BR-3 cells (human) (UniProt P04626); assay: flow cytometry, SK-BR-3 cells; mAb 50 ng/ml as headed
# [2] = target: HER2 (Human Epidermal Growth Factor Receptor 2) expressed on SK-BR-3 cells (human) (UniProt P04626); assay: flow cytometry, SK-BR-3 cells; mAb 0.2 ng/ml as headed
# [3] = target: HER2 (Human Epidermal Growth Factor Receptor 2) expressed on SK-BR-3 cells (human) (UniProt P04626); assay: flow cytometry, SK-BR-3 cells; mAb 0.4 ng/ml as headed
substance,measurement,setting,value
Anti-idiotypic FVIII (a chimeric anti-Factor VIII antibody produced by rat hybridoma YB2/0),MFI,[1],16 MFI
same,MFI,[2],0 MFI
same,MFI,[3],0 MFI
